Measurements taken from US20200299372A1 (ADRENOMED, published 2020).
Read-outs that look alike come from different tables or passages of the source. No end group written: not given here.

Columns and labels:
[1] = biological target: T1, human recombinant adrenomedullin receptor (CRLR + RAMP3) (human); assay: cell-based or functional assay
[2] = biological target: T1, human recombinant adrenomedullin …; assay: cell-based or functional assay; remark: listed apart in the source

T1 sequence (Q16602 whole entry, chain 1 of 2): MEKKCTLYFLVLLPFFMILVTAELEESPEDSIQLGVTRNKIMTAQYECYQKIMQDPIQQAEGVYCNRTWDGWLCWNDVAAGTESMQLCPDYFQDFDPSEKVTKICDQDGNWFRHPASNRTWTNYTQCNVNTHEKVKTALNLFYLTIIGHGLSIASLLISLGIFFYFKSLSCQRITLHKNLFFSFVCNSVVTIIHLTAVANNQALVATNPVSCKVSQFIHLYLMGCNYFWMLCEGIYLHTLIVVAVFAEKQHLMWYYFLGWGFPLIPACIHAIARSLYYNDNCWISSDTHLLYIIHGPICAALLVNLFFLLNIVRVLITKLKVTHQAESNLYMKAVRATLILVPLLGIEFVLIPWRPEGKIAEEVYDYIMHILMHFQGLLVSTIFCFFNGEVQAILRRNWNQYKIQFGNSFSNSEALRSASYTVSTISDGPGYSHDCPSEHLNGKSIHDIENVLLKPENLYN
T1 sequence (O60896 whole entry, chain 2 of 2, further chain): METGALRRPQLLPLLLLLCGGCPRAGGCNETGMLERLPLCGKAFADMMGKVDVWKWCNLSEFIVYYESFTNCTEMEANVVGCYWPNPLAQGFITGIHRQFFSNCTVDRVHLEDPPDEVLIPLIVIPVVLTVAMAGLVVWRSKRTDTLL

EC50 (read off the curve) [1] [pM] | EC50 (read off the curve) [2] [pM] | Binder
~90 |  | YRQSMNQGSRSNGCRFGTCTFQKLAHQIYQLTDKDKDGMAPRNKISPQGY-NH2 (ends and bridges not checked) [Murine ADM 1-50]
 | ~1000 | mature human Adrenomedullin (Human ADM 1-52) (ends and bridges not checked) peptide: YRQSMNNFQGLRSFGCRFGTCTVQKLAHQIYQFTDKDKDNVAPRSKISPQGY-NH2
